Molecular target: T1, mouse Tie1 Fc (Mus musculus, UniProt Q06806)
T1 construct: both dimeric (Tie1-Fc fusion protein) and monomeric (Tie1-HIS) versions of the extracellular domain of the Tie1 were used
T1 sequence (Q06806 23-755 limits assumed): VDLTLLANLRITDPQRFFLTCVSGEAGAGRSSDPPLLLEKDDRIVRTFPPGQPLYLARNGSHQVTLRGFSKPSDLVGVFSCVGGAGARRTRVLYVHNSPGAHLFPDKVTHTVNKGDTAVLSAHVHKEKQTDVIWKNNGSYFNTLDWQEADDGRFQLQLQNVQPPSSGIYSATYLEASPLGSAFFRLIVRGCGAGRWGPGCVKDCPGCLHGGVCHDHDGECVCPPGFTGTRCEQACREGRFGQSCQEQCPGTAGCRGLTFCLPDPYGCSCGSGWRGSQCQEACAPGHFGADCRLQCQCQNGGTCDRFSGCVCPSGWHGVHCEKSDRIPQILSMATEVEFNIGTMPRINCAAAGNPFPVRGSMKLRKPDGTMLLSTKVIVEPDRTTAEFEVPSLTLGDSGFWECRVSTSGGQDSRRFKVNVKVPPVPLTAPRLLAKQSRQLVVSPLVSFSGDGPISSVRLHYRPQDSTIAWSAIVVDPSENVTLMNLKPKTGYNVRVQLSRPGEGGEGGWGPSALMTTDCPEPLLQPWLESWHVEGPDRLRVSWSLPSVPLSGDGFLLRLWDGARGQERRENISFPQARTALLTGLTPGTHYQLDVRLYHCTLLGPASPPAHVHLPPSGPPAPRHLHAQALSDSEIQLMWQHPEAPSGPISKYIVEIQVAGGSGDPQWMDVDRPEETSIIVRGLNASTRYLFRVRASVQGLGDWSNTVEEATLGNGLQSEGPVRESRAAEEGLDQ
Assay: BIAcore, mouse Tie1 Fc over IgG coated on CM5 chip
Assay type: binding
Conditions: IgG immobilised; Mouse Tie1 Fc analyte
Protocol: In order to evaluate if the binding behavior had been affected in any way by the conversion of the somatic mutations back to germline, the germlined antibody was produced and tested as an IgG. The germlined E3 was reformatted to an IgG as described. This was then used to transiently transfect HEK293T cells using established procedures. The IgG was purified from the culture supernatant using protein A column chromatography using established procedures and the subsequent IgG was then tested for binding activity using surface plasmon resonance (BIAcore). The germlined E3 IgG1 stock solution 0.63 mg/ml (2146-002) was diluted 1/50 in a buffer of pH 4.5 and the parental E3 IgG1 stock solution 0.56 mg/ml (2143-001) was diluted 1/50 in a buffer of pH 4.5. The IgG were directly coated via onto a CM5 chip. The surface of the chips was activated with a 7 minute pulse of 0.05M NHS/0.2M EDC and the IgG was flowed over until 780RU germlined E3-IgG and 728 non germlined E3 IgG was coated onto the surface. All flow cells were subsequently deactivated with a 7 minute pulse of 1M ethanolamine hydrochloride pH8,5. All analysis was performed in HBS buffer. Purified recombinant mouse Tie1 Fc was diluted 1/6,5 in HBS to obtain a 400 nM stock solution. Serial dilutions were made to obtain 200 nM, 100 nM, 50 nM and 25 nM Tie1 Fc stocks. For analysis of the association phase samples were injected at 30 μl/min for 8.3 minutes using kinject program. This was followed by a 40 minutes dissociation phase. Any antigen remaining associated to the surface was stripped from the IgG surface at a flow of 50 μl/min with two injections of 10 mM glycine pH1.5 for 30 seconds. All samples were run and analyzed in duplicate
Sensorgrams were analyzed using the simultaneous ka/kd fitting program with 1:1 model in the BIAEVALUATION™ software 3.1.

Molecule	koff	kon
E3: human anti-Tie1 antibody from phage Fab library, reformatted as IgG; HC variable SEQ ID NO:114, LC variable SEQ ID NO:116 (antibody, V domains shown, IgG constant regions; Synthetically generated peptide) VH: EVQLLESGGGLVQPGGSLRLSCAASGFTFSMYGMVWVRQAPGKGLEWVSVISPSGGNTGYADSVKGRFTISRDNSKNTLYLQVNSLRAEDTAVYYCARAPRGYSYGYYYWGQGTLVTVSSASTKGPSVFPLAPSSKSTSGG VL: DIQMTQSPLSLSASVGDRVTITCRASQGIGHYLAWYQQKPGKVPKLLIYTASTLQSGVPSRFSGSGSGTDFTLTINSLQPEDVATYYCQQFNSYPHTFGQGTRLDIK	9.2e-05 s⁻¹	6170 M⁻¹ s⁻¹
DX-2210: E3 antibody in which the light chain has been germlined (antibody, V domains shown) VH: EVQLLESGGGLVQPGGSLRLSCAASGFTFSMYGMVWVRQAPGKGLEWVSVISPSGGNTGYADSVKGRFTISRDNSKNTLYLQVNSLRAEDTAVYYCARAPRGYSYGYYYWGQGTLVTVSSASTKGPSVFPLAPSSKSTSGG VL: DIQMTQSPSSLSASVGDRVTITCRASQGIGHYLAWYQQKPGKVPKLLIYTASTLQSGVPSRFSGSGSGTDFTLTISSLQPEDVATYYCQQFNSYPHTFGQGTRLEIK	8.99e-05 s⁻¹	6000 M⁻¹ s⁻¹
